In PMC2425476 (Nucleic Acids Research, 2008) one finds binding result and Kd data, which are given here for 2 molecules.

Series [1] concerns the molecule itself.
For a further series, the target named is δW279A-γ complex;β clamp (Escherichia coli;Escherichia coli, UniProt P06710-2;P28630;P28631;P28905;P28632;P0A988 1-431;1-343;1-334;1-147;1-137;1-366, W279A|). Put plainly: fluorescence anisotropy. Background: Polarisation of emitted light reports the rotation of a fluorescent probe.
Series [2] concerns the target T1, δW279Y-γ complex;β clamp (Escherichia coli;Escherichia coli, UniProt P06710-2;P28630;P28631;P28905;P28632;P0A988 1-431;1-343;1-334;1-147;1-137;1-366, W279Y|). Description: fluorescence anisotropy.
Series [3] addresses γ complex (clamp loader, γ3δδ'χψ), wild type;β clamp (Escherichia coli;Escherichia coli, UniProt P06710-2;P28630;P28631;P28905;P28632;P0A988 1-431;1-343;1-334;1-147;1-137;1-366, |). Put plainly: fluorescence anisotropy.
The target in series [4] is T1, δW279Y-γ complex;β clamp. Put plainly: fluorescence anisotropy. This is another data set of the same source.
For series [5], the target named is δW279A/R277A-γ complex;β clamp (Escherichia coli;Escherichia coli, UniProt P06710-2;P28630;P28631;P28905;P28632;P0A988 1-431;1-343;1-334;1-147;1-137;1-366, R277A;W279A|). Description: fluorescence anisotropy.
Series [6] concerns the target δW279A/R283A-γ complex;β clamp (Escherichia coli;Escherichia coli, UniProt P06710-2;P28630;P28631;P28905;P28632;P0A988 1-431;1-343;1-334;1-147;1-137;1-366, W279A;R283A|). Put plainly: fluorescence anisotropy.

Like-named read-outs stand apart in the source and are kept apart here.

B1: γ subunit of the E. coli clamp loader (γ complex) (natural protein)
chain: MSYQVLARKWRPQTFADVVGQEHVLTALANGLSLGRIHHAYLFSGTRGVGKTSIARLLAKGLNCETGITATPCGVCDNCREIEQGRFVDLIEIDAASRTKVEDTRDLLDNVQYAPARGRFKVYLIDEVHMLSRHSFNALLKTLEEPPEHVKFLLATTDPQKLPVTILSRCLQFHLKALDVEQIRHQLEHILNEEHIAHEPRALQLLARAAEGSLRDALSLTDQAIASGDGQVSTQAVSAMLGTLDDDQALSLVEAMVEANGERVMALINEAAARGIEWEALLVEMLGLLHRIAMVQLSPAALGNDMAAIELRMRELARTIPPTDIQLYYQTLLIGRKELPYAPDRRMGVEMTLLRALAFHPRMPLPEPEVPRQSFAPVAPTAVMTPTQVPPQPQSAPQQAPTVPLPETTSQVLAARQQLQRVQGATKAKKE
On to B1, for which the binding result in series [1] is recorded as “binds”.

B2: 30 nt/55 nt p/tDNA (mixed)
DNA 1: TGAGCGTTTTTCCTGTTGCAATGGCTGGCGGTAATATTGTTCTGGATATTACCAG
DNA 2: CTGGTAATATCCAGAACAATATTACCGCCA
modifications: 5' amino linker on template (S2)
Usually Kd stands for a measure of binding affinity in units of concentration. Low readings indicate a tighter complex, high ones a looser complex. For the molecule B2, the Kd with δW279A-γ complex;β clamp is 590 ± 80 nM; with δW279Y-γ complex;β clamp [2], 159 ± 15 nM; in series [3], 60 ± 10 nM; in the series with δW279Y-γ complex;β clamp [4], approximately 800 nM. The binding result in series [5] and in series [6] was “no binding” throughout.
